Experimental data as given in patent publication US20140170162A1, “PRESERVATION OF THE NEUROMUSCULAR JUNCTION (NMJ) AFTER TRAUMATIC NERVE INJURY” (The Regents of the University of California, priority 2012, published 2014).

Experiments:
[1] = biological target: His-labeled rat recombinant agrin (R&D Systems) (UniProt P25304)
C212 myotubes = experiment: In vitro assessment of AChR clustering in myotubes; assay type: cell-based; conditions: FIG. 3A, B
Experimental: C212 cells were purchased from ATCC (Manassas, Va.). Cells were expanded and differentiated into myotubes as previously described. Five days following differentiation, myotubes were then treated overnight with […] His-labeled rat recombinant agrin (R&D Systems, Minneapolis, Minn.) or […] rat recombinant agrin incubated with […] MMP3 active subunit (Millipore, Billerica, Mass.) for 72 hours. Western blot was performed to confirm cleavage of agrin. After treatment of myotubes with Alexa 555-conjugated a-bungarotoxin (a-BTX; Invitrogen, Carlsbad, Calif.; 1:1,000), samples were fixed according to standard procedures for immunohistochemistry. Ten random fields at 40 magnification were evaluated by a blinded observer for AChR clustering under fluorescent microscopy as previously described. An AChR cluster was defined as an aggregate of at least 4 lm2. Three samples from each treatment group were analyzed.
Agrin was cleaved by MMP3, resulting in a 60 kDa fragment as detected by silver stain.

Chain of UniProt P25304 (P25304 1153-1959): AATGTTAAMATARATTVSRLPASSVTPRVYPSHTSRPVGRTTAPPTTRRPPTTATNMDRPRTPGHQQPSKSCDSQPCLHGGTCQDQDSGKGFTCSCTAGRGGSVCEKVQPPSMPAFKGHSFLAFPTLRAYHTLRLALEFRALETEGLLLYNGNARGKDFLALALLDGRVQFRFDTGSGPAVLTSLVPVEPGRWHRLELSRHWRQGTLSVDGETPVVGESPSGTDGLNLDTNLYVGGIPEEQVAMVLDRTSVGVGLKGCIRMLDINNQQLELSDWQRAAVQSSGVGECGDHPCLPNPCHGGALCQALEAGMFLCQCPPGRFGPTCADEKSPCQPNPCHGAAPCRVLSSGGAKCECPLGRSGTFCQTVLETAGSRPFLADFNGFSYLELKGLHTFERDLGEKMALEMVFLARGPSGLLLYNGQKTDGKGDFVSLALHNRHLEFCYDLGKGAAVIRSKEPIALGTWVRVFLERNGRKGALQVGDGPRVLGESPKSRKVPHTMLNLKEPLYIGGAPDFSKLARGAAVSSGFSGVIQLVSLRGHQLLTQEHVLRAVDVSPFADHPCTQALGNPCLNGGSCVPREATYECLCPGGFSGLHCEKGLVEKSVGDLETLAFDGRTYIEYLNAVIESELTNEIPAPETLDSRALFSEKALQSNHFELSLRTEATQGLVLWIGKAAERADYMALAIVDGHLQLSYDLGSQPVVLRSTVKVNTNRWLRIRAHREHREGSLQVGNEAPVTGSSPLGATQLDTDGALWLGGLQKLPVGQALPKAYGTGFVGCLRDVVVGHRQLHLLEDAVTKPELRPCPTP

With MMP3 active subunit (Millipore) as the substance, how does the “AChR clusters/field in C212 myotubes (agrin processed by MMP3, against 7.30 for agrin alone)” value [1] read?
The value was 7.30 6 0.578 clusters/field vs 2.20 6 0.467 clusters/field.

And the “cleavage of agrin (silver stain)” value [1]?
The value was “Agrin was cleaved by MMP3, resulting in a 60 kDa fragment as detected by silver stain”.

And the “degradation of 90 kDa agrin after 72 hours” value [1]?
Its value is “Treatment with MMP3 for 72 hours led to complete degradation of 90 kDa agrin”.

With “agrin: His-labeled rat recombinant agrin (R&D Systems), approximately 90 kDa” as the substance, how does the “AChR clustering (images)” value (C212 myotubes) read?
The value was “clustering”.
